Target: A. franciscana ATP synthase c-subunit (c8-ring) (A. franciscana (endogenous in A. franciscana mitochondria))
Assay: cryo-EM structure; single-particle cryo-EM of the ATP synthase monomer purified from A. franciscana mitochondria in DDM at pH 7.0; rotational states 1, 2 and 3a; local refinement of F1 and FO

A stoichiometry N of 8 was found for “A. franciscana ATP synthase c-subunit (c8-ring) (natural protein)” in this work.
